T1: Human TROP2 Protein, His Tag (Acro Biosystems) (human, UniProt P09758 27-274)
T1 construct: Soluble analyte of the Octet assay; also called TACSTD2; not shown: His tag
T1 sequence (looked up): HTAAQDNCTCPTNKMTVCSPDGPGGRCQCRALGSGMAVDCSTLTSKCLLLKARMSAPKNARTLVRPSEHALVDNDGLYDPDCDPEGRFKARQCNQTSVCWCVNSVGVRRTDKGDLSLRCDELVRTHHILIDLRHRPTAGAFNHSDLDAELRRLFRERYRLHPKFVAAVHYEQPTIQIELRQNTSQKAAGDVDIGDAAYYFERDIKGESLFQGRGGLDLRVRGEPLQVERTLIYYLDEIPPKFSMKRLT

B1: MYT13166 (antibody, V domains shown)
VH: QVQLQQSGSELKKPGASVKVSCKASGYTFTNYGMNWVKQAPGQGLKWMGWINTYTGEPTYTDDFHGRFAFSLDTSVSTAYLQISSLKADDTAVYFCARGGFGSSYWYFDVWGQGSLVTVSS
VL: DIQLTQSPSSLSASVGDRVSITCKASQDVHIAVAWYQQKPGKAPKLLIYSASYRYTGVPDRFSGSGSGTDFTLTISSLQPEDFAVYYCQQHYITPLTFGAGTKVEIK
notes: Sacituzumab HC-LC pairing variant; IgG
B2: MYT13178 (antibody, V domains shown)
VH: QVQLQQSGSELKKPGASVKVSCKASGYTFTNYGMNWVKQAPGQGLKWMGWINTYTGEPTHTDDFKGRFAFSLDTSVSTAYLQISSLKADDTAVYFCARGGFGSSYWYFDVWGQGSLVTVSS
VL: DIQLTQSPSSLSASVGDRVSITCKASQDVSIAVAWYQQKPGKAPKLLIYSHSYRYTGVPDRFSGSGSGTDFTLTISSLQPEDFAVYYCQQHYITPLTFGAGTKVEIK
notes: as for B1
B3: MYT13185 (antibody, V domains shown)
VH: QVQLQQSGSELKKPGASVKVSCKASGYTFTNYHMNWVKQAPGQGLKWMGWINTYTGEPTYTDDFKGRFAFSLDTSVSTAYLQISSLKADDTAVYFCARGGFGSSYWYFDVWGQGSLVTVSS
VL: DIQLTQSPSSLSASVGDRVSITCKASQDVSIAVAWYQQKPGKAPKLLIYSAHYRYTGVPDRFSGSGSGTDFTLTISSLQPEDFAVYYCQQHYITPLTFGAGTKVEIK
notes: as for B1
B4: MYT13173 (antibody, V domains shown)
VH: QVQLQQSGSELKKPGASVKVSCKASGYTFTNYGMNWVKQAPGQGLKWMGWINTYTGEPTYTDDHKGRFAFSLDTSVSTAYLQISSLKADDTAVYFCARGGFGSSYWYFDVWGQGSLVTVSS
VL: DIQLTQSPSSLSASVGDRVSITCKASQDVSIAHAWYQQKPGKAPKLLIYSASYRYTGVPDRFSGSGSGTDFTLTISSLQPEDFAVYYCQQHYITPLTFGAGTKVEIK
notes: as for B1
B5: MYT13171 (antibody, V domains shown)
VH: QVQLQQSGSELKKPGASVKVSCKASGYTFTNYGMNWVKQAPGQGLKWMGWINTYTGEPTYTHDFKGRFAFSLDTSVSTAYLQISSLKADDTAVYFCARGGFGSSYWYFDVWGQGSLVTVSS
VL: DIQLTQSPSSLSASVGDRVSITCKASQDVSIAHAWYQQKPGKAPKLLIYSASYRYTGVPDRFSGSGSGTDFTLTISSLQPEDFAVYYCQQHYITPLTFGAGTKVEIK
notes: as for B1
B6: MYT13180 (antibody, V domains shown)
VH: QVQLQQSGSELKKPGASVKVSCKASGYTFTNYGMNWVKQAPGQGLKWMGWINTYTGEPTYTDHFKGRFAFSLDTSVSTAYLQISSLKADDTAVYFCARGGFGSSYWYFDVWGQGSLVTVSS
VL: DIQLTQSPSSLSASVGDRVSITCKASQDVSIAVAWYQQKPGKAPKLLIYSHSYRYTGVPDRFSGSGSGTDFTLTISSLQPEDFAVYYCQQHYITPLTFGAGTKVEIK
notes: as for B1
B7: MYT13167 (antibody, V domains shown)
VH: QVQLQQSGSELKKPGASVKVSCKASGYTFTNYGMNWVKQAPGQGLKWMGWINTYTGEPTYTDDFKHRFAFSLDTSVSTAYLQISSLKADDTAVYFCARGGFGSSYWYFDVWGQGSLVTVSS
VL: DIQLTQSPSSLSASVGDRVSITCKASQDVHIAVAWYQQKPGKAPKLLIYSASYRYTGVPDRFSGSGSGTDFTLTISSLQPEDFAVYYCQQHYITPLTFGAGTKVEIK
notes: as for B1
B8: MYT13169 (antibody, V domains shown)
VH: QVQLQQSGSELKKPGASVKVSCKASGYTFTNYHMNWVKQAPGQGLKWMGWINTYTGEPTYTDDFKGRFAFSLDTSVSTAYLQISSLKADDTAVYFCARGGFGSSYWYFDVWGQGSLVTVSS
VL: DIQLTQSPSSLSASVGDRVSITCKASQDVSIAHAWYQQKPGKAPKLLIYSASYRYTGVPDRFSGSGSGTDFTLTISSLQPEDFAVYYCQQHYITPLTFGAGTKVEIK
notes: as for B1
B9: MYT13186 (antibody, V domains shown)
VH: QVQLQQSGSELKKPGASVKVSCKASGYTFTNYGMNWVKQAPGQGLKWMGWINTYTGEPTHTDDFKGRFAFSLDTSVSTAYLQISSLKADDTAVYFCARGGFGSSYWYFDVWGQGSLVTVSS
VL: DIQLTQSPSSLSASVGDRVSITCKASQDVSIAVAWYQQKPGKAPKLLIYSAHYRYTGVPDRFSGSGSGTDFTLTISSLQPEDFAVYYCQQHYITPLTFGAGTKVEIK
notes: as for B1
B10: MYT13184 (antibody, V domains shown)
VH: QVQLQQSGSELKKPGASVKVSCKASGYTFTNHGMNWVKQAPGQGLKWMGWINTYTGEPTYTDDFKGRFAFSLDTSVSTAYLQISSLKADDTAVYFCARGGFGSSYWYFDVWGQGSLVTVSS
VL: DIQLTQSPSSLSASVGDRVSITCKASQDVSIAVAWYQQKPGKAPKLLIYSAHYRYTGVPDRFSGSGSGTDFTLTISSLQPEDFAVYYCQQHYITPLTFGAGTKVEIK
notes: as for B1
B11: MYT13174 (antibody, V domains shown)
VH: QVQLQQSGSELKKPGASVKVSCKASGYTFTNYGMNWVKQAPGQGLKWMGWINTYTGEPTYTDDFHGRFAFSLDTSVSTAYLQISSLKADDTAVYFCARGGFGSSYWYFDVWGQGSLVTVSS
VL: DIQLTQSPSSLSASVGDRVSITCKASQDVSIAHAWYQQKPGKAPKLLIYSASYRYTGVPDRFSGSGSGTDFTLTISSLQPEDFAVYYCQQHYITPLTFGAGTKVEIK
notes: as for B1
B12: MYT13175 (antibody, V domains shown)
VH: QVQLQQSGSELKKPGASVKVSCKASGYTFTNYGMNWVKQAPGQGLKWMGWINTYTGEPTYTDDFKHRFAFSLDTSVSTAYLQISSLKADDTAVYFCARGGFGSSYWYFDVWGQGSLVTVSS
VL: DIQLTQSPSSLSASVGDRVSITCKASQDVSIAHAWYQQKPGKAPKLLIYSASYRYTGVPDRFSGSGSGTDFTLTISSLQPEDFAVYYCQQHYITPLTFGAGTKVEIK
notes: as for B1
B13: MYT13177 (antibody, V domains shown)
VH: QVQLQQSGSELKKPGASVKVSCKASGYTFTNYHMNWVKQAPGQGLKWMGWINTYTGEPTYTDDFKGRFAFSLDTSVSTAYLQISSLKADDTAVYFCARGGFGSSYWYFDVWGQGSLVTVSS
VL: DIQLTQSPSSLSASVGDRVSITCKASQDVSIAVAWYQQKPGKAPKLLIYSHSYRYTGVPDRFSGSGSGTDFTLTISSLQPEDFAVYYCQQHYITPLTFGAGTKVEIK
notes: as for B1
B14: MYT13170 (antibody, V domains shown)
VH: QVQLQQSGSELKKPGASVKVSCKASGYTFTNYGMNWVKQAPGQGLKWMGWINTYTGEPTHTDDFKGRFAFSLDTSVSTAYLQISSLKADDTAVYFCARGGFGSSYWYFDVWGQGSLVTVSS
VL: DIQLTQSPSSLSASVGDRVSITCKASQDVSIAHAWYQQKPGKAPKLLIYSASYRYTGVPDRFSGSGSGTDFTLTISSLQPEDFAVYYCQQHYITPLTFGAGTKVEIK
notes: as for B1
B15: MYT13182 (antibody, V domains shown)
VH: QVQLQQSGSELKKPGASVKVSCKASGYTFTNYGMNWVKQAPGQGLKWMGWINTYTGEPTYTDDFHGRFAFSLDTSVSTAYLQISSLKADDTAVYFCARGGFGSSYWYFDVWGQGSLVTVSS
VL: DIQLTQSPSSLSASVGDRVSITCKASQDVSIAVAWYQQKPGKAPKLLIYSHSYRYTGVPDRFSGSGSGTDFTLTISSLQPEDFAVYYCQQHYITPLTFGAGTKVEIK
notes: as for B1
B16: MYT13188 (antibody, V domains shown)
VH: QVQLQQSGSELKKPGASVKVSCKASGYTFTNYGMNWVKQAPGQGLKWMGWINTYTGEPTYTDHFKGRFAFSLDTSVSTAYLQISSLKADDTAVYFCARGGFGSSYWYFDVWGQGSLVTVSS
VL: DIQLTQSPSSLSASVGDRVSITCKASQDVSIAVAWYQQKPGKAPKLLIYSAHYRYTGVPDRFSGSGSGTDFTLTISSLQPEDFAVYYCQQHYITPLTFGAGTKVEIK
notes: as for B1
B17: MYT13183 (antibody, V domains shown)
VH: QVQLQQSGSELKKPGASVKVSCKASGYTFTNYGMNWVKQAPGQGLKWMGWINTYTGEPTYTDDFKHRFAFSLDTSVSTAYLQISSLKADDTAVYFCARGGFGSSYWYFDVWGQGSLVTVSS
VL: DIQLTQSPSSLSASVGDRVSITCKASQDVSIAVAWYQQKPGKAPKLLIYSHSYRYTGVPDRFSGSGSGTDFTLTISSLQPEDFAVYYCQQHYITPLTFGAGTKVEIK
notes: as for B1
B18: MYT13172 (antibody, V domains shown)
VH: QVQLQQSGSELKKPGASVKVSCKASGYTFTNYGMNWVKQAPGQGLKWMGWINTYTGEPTYTDHFKGRFAFSLDTSVSTAYLQISSLKADDTAVYFCARGGFGSSYWYFDVWGQGSLVTVSS
VL: DIQLTQSPSSLSASVGDRVSITCKASQDVSIAHAWYQQKPGKAPKLLIYSASYRYTGVPDRFSGSGSGTDFTLTISSLQPEDFAVYYCQQHYITPLTFGAGTKVEIK
notes: as for B1
B19: MYT13179 (antibody, V domains shown)
VH: QVQLQQSGSELKKPGASVKVSCKASGYTFTNYGMNWVKQAPGQGLKWMGWINTYTGEPTYTHDFKGRFAFSLDTSVSTAYLQISSLKADDTAVYFCARGGFGSSYWYFDVWGQGSLVTVSS
VL: DIQLTQSPSSLSASVGDRVSITCKASQDVSIAVAWYQQKPGKAPKLLIYSHSYRYTGVPDRFSGSGSGTDFTLTISSLQPEDFAVYYCQQHYITPLTFGAGTKVEIK
notes: as for B1
B20: MYT13168 (antibody, V domains shown)
VH: QVQLQQSGSELKKPGASVKVSCKASGYTFTNHGMNWVKQAPGQGLKWMGWINTYTGEPTYTDDFKGRFAFSLDTSVSTAYLQISSLKADDTAVYFCARGGFGSSYWYFDVWGQGSLVTVSS
VL: DIQLTQSPSSLSASVGDRVSITCKASQDVSIAHAWYQQKPGKAPKLLIYSASYRYTGVPDRFSGSGSGTDFTLTISSLQPEDFAVYYCQQHYITPLTFGAGTKVEIK
notes: as for B1
B21: MYT13181 (antibody, V domains shown)
VH: QVQLQQSGSELKKPGASVKVSCKASGYTFTNYGMNWVKQAPGQGLKWMGWINTYTGEPTYTDDHKGRFAFSLDTSVSTAYLQISSLKADDTAVYFCARGGFGSSYWYFDVWGQGSLVTVSS
VL: DIQLTQSPSSLSASVGDRVSITCKASQDVSIAVAWYQQKPGKAPKLLIYSHSYRYTGVPDRFSGSGSGTDFTLTISSLQPEDFAVYYCQQHYITPLTFGAGTKVEIK
notes: as for B1

Each binder was assayed against T1, Human TROP2 Protein, His Tag (Acro …) (assay: BLI (Octet)).

Binding result, binds:
B1
B2
B3
B4
B5
B6
B7
B8
B9
B10
B11
B12
B13
B14
B15
B16
B17
B18
B19
B20
B21
